Bridge positions count the residues as written; N and C are the ends. Side chains are listed from the residue outwards. Ends that are not written are not given here. * marks the point of attachment. Hexanoyl(6-maleimido) = O=C1C=CC(=O)N1CCCCCC(=O)*; reversible prodrug linker = not defined here
B1: Permanent Lys26 CNP-38 PEG 5 kDa conjugate 19e (peptide)
peptide: LQEHPNARKYKGANKKGLSKGCFGLKLDRIGSMSGLGC
modifications: 5 kDa PEG stably attached through maleimidohexanoyl/thiol to the side chain of Lys26 (ring lysine); disulfide Cys22-Cys38
B2: Reversible Lys26 CNP-38 PEG2x20 kDa conjugate 10f (peptide)
peptide: B1 peptide
modifications: disulfide 22-38; not fully specified (residue 26)
notes: This is a reversible conjugate with an in vitro release half-life of 8.5 d
B3: Conjugate 31d (4-arm PEG 40 kDa, Lys26 CNP-38, reversible conjugate) (peptide)
peptide: B1 peptide
modifications: not fully specified; Lys26 side chain attached through a reversible Asn-linker (maleimidohexanoyl) to a thiol arm of 4-arm-thiol-PEG 40 kDa; disulfide Cys22-Cys38
B4: Reversible Lys26 CNP-38 PEG4x10 kDa conjugate 11i (peptide)
peptide: LQEHPNARKYKGANKKGLSKGCFGLK([reversible prodrug linker-4x10 kDa PEG])LDRIGSMSGLGC
modifications: disulfide 22-38; reading uncertain
notes: This is a reversible conjugate with an in vitro release half-life of 9.5 d

Target: T1, NPR-C (natriuretic peptide receptor C), expressed on Hek293 cells (UniProt P17342 27-541, limits assumed)
T1 construct: whole, on cells
T1 sequence (looked up): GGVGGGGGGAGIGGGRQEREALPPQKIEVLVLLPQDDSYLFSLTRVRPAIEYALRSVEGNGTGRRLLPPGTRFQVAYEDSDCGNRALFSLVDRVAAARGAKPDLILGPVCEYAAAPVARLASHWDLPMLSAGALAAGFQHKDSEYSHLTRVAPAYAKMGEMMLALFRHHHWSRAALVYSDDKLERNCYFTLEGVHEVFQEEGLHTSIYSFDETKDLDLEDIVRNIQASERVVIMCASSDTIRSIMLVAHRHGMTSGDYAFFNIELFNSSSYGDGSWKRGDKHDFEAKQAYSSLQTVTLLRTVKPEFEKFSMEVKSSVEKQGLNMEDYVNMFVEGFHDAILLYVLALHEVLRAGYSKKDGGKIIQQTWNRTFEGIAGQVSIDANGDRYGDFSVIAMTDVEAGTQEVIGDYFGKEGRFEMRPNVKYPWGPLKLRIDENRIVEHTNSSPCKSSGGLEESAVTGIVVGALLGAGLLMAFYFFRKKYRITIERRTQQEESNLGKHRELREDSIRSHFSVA
Test: competition with fluorescein-labelled CNP-38 27d on NPR-C expressing Hek293 cells, flow cytometry (MFI), 4PL fit; ratio to CNP-38
Text: For the NPR—C affinity assay, a NPR—C expressing Hek293 cell line was developed. The coding region of the NPR—C sequence (BC131540) was cloned into a lentiviral vector under CMV promoter for constitutive receptor expression. A bicistronic element located on the vector for puromycin resistence was used as eukaryotic selection marker. After transduction, stably growing cell pools were subjected to qRT-PCR for confirmation of receptor mRNA-expression compared to parental Hek293 cells. An NPR—C-expressing cell pool was expanded and frozen as master cell bank for CNP sample testing.
For the assay, growing cells were trypsinized from the cell flask bottom, counted, and seeded in a 96-well plate (1.5×10⁵/well) and centrifuged. Supernatants were discarded. CNP standard and sample were serially diluted over 9 steps in PBS 0.2% BSA and transferred to the micro plate in duplicates and mixed with cells. […] Subsequently, cells were analyzed by flow cytometry using mean fluorescence intensity of the FITC channel (FL1, Beckman Coulter FC500MPL) as read out.

How did the “IC50 of PEGylated CNP-38/IC50 CNP-38” value turn out when {PEG 5 kDa-Hexanoyl(6-maleimido)}-LQEHPNARKYKGANKKGLSKGCFGLKLDRIGSMSGLGC (disulfide 22-38) [Permanent N-terminal CNP-38 PEG 5 kDa conjugate 15e] was run?
The value was 0.53 ratio.

B1 was tested. Which “IC50 of PEGylated CNP-38/IC50 CNP-38” value did it give?
Its value is 1.1 ratio.

Which “IC50 of PEGylated CNP-38/IC50 CNP-38” value does the source give for LQEHPNARKYKGANKKGLSKGCFGLKLDRIGSMSGLGC (disulfide 22-38; not fully specified (residue 26)) [Permanent Lys26 CNP-38 PEG4x10 kDa conjugate 12g] here?
Its value is 143 ratio.

With B2 as the binder, how does the “IC50 of PEGylated CNP-38/IC50 CNP-38” value read?
Its value is 12 ratio.

Which “IC50 of PEGylated CNP-38/IC50 CNP-38” value does the source give for B3 here?
Its value is 1.7 ratio.

For B4, which “IC50 of PEGylated CNP-38/IC50 CNP-38” value is on record?
The value was 91 ratio.

Target: T2, NPR-B receptor (natriuretic peptide receptor B), endogenous on NIH-3T3 cells (murine (endogenous in NIH-3T3 cells), UniProt Q6VVW5 17-1047)
T2 sequence (looked up): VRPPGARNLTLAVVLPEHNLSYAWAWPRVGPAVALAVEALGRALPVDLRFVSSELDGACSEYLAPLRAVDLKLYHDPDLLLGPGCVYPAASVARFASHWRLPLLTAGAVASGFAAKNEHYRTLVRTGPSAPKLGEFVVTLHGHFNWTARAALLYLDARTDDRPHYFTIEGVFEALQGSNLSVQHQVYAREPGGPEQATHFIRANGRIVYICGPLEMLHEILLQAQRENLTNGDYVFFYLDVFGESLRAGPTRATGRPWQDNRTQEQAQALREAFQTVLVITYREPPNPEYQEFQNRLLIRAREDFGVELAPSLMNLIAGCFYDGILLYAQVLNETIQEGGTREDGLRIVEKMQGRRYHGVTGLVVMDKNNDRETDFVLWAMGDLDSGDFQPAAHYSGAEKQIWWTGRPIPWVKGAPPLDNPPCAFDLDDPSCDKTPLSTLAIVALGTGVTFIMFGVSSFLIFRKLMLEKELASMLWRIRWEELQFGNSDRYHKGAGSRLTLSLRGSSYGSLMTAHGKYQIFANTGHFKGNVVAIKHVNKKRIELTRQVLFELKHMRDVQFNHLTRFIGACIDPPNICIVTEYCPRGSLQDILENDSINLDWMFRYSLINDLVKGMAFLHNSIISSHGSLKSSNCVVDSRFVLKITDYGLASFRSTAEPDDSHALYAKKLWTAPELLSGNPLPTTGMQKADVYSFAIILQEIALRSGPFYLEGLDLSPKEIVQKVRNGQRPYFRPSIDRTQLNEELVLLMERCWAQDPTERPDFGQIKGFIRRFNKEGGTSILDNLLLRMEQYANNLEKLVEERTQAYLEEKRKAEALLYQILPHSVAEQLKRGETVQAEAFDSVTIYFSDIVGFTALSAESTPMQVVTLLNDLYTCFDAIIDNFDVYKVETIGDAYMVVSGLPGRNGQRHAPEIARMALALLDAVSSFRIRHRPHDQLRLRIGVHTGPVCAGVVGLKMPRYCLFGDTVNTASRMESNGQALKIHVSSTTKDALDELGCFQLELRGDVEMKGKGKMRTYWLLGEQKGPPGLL
Test: cell-based or functional assay

For {PEG 5 kDa-Hexanoyl(6-maleimido)}-LQEHPNARKYKGANKKGLSKGCFGLKLDRIGSMSGLGC (disulfide 22-38) [Permanent N-terminal CNP-38 PEG 5 kDa conjugate 15e], which “EC50 compound/EC50 CNP-38 (residual NPR-B activity, cGMP production in NIH-3T3 cells)” value is on record?
The value was greater than 5 ratio.

For B1, which “EC50 compound/EC50 CNP-38 (residual NPR-B activity, cGMP production in NIH-3T3 cells)” value is on record?
The value was greater than 100 ratio.

Which “EC50 compound/EC50 CNP-38 (residual NPR-B activity, cGMP production in NIH-3T3 cells)” value does the source give for LQEHPNARKYKGANKKGLSKGCFGLKLDRIGSMSGLGC (disulfide 22-38; not fully specified (residue 26)) [Permanent Lys26 CNP-38 PEG4x10 kDa conjugate 12g] here?
Its value is greater than 100 ratio.

Which “EC50 compound/EC50 CNP-38 (residual NPR-B activity, cGMP production in NIH-3T3 cells)” value does the source give for B2 here?
Its value is greater than 100 ratio.

B4 was tested. Which “EC50 compound/EC50 CNP-38 (residual NPR-B activity, cGMP production in NIH-3T3 cells)” value did it give?
Its value is greater than 100 ratio.

Target: T2, NPR-B receptor (natriuretic peptide …)
Test: cell-based or functional assay
Remark: another data set of the same source

Which “EC50 compound/EC50 CNP-38 (cGMP production in NIH-3T3 cells)” value does the source give for LQEHPNARKYKGANKKGLSKGCFGLKLDRIGSMSGLGC (disulfide 22-38) here?
Its value is 1 ratio.
